Assay results published in patent US5456909A, “Glycoform fractions of recombinant soluble complement receptor 1 (sCR1) having extended half-lives in vivo” (T Cell Sciences, Inc., priority 1992, dated 1995).
Values joined by “and” are separate entries in the source; they are usually repeats but may differ in a detail not shown here. Identical values can stand only once.

Experiments:
[1] = system: complement-mediated lysis of antibody coated SRBC; test: Inhibition of complement-mediated hemolysis of antibody-sensitized SRBC in vitro; assay type: cell-based, human; conditions: for IH50 (concentration giving 50% inhibition of hemolysis): SRBC, human serum as complement source; for antihemolytic potency comparison, in words: in vitro
Experimental: SRBC presensitized with rabbit anti-SRBC antibody (Diamedix, Miami, Fla.) were mixed in a V-bottom microtiter wells (Costar, Cambridge, Mass.) with an appropriate dilution of the test plasma and an aliquot of diluted human serum as a complement source. After incubation, 37° C., 1 hour, the unlysed red cells were pelleted by centrifugation, the supernatant transferred to corresponding flat bottom microwells (Costar, Cambridge, Mass.), and absorbance at 415 nm measured. Inhibition of complement-mediated lysis of the antibody coated SRBC was measured as a reduction in the absorbance in the presence of test sample.
A range of dilutions of TP10HD or TP10HD glycoform spanning 7.8 to 1000 ng/ml was examined for each sample.

[2] = Pharmacokinetic study 3: iv TP10HD-CC in pigs, residual functional activity by hemolysis inhibition with pig complement; assay type: in vivo; conditions: 1 mg/kg
Experimental: Study 3: TP10HD-CC was administered as supplied to a final dose of 1 mg/kg.
In Study 3, test material was injected iv through a jugular vein cannula into piglets ranging in weight from 4.5 to 6.1 kg. Blood samples were taken via a previously implanted jugular vein cannula into syringes containing lithium heparin at a final concentration of 15 units/ml. A preinfusion sample, 10 ml, was taken at zero time and postinfusion samples, 1.0 ml, were taken at 5, 10, 15, 30, 45, 60, 120, 180, 240, 300, 360 minutes and 24 hours. Anticoagulated blood samples were centrifuged at ~3000 rpm, 4° C., 5 minutes and the platelet-poor plasma was aliquotted and stored at or below -70° C.
Plasma samples were analyzed for residual test material by an in vitro functional assay, as above, using pig rather than human complement. Pharmacokinetic half-life was calculated from the titer of the residual functional activity.
Prior to infusion with TP10HD-CC, plasma was collected from each pig to be used as a sample diluent and complement source for the hemolysis assay. Test samples were diluted a minimum of 1:50 with 0.1M Hepes, 0.15M NaCl, pH 7.4 buffer. For greater dilution, test samples were diluted with preinfusion plasma already diluted 1:50 in the same buffer, thereby maintaining the final plasma concentration at 1:50. At this dilution, the degree of hemolysis was equivalent to hemolysis with human complement, as described above. Other manipulations were as described above. Standard curves with known quantities of TP10HD can be used to calibrate the assay so that results can be expressed as μg/ml TP10HD remaining in the plasma versus time.
The pharmacokinetic parameters for clearance rate, compartment volume, rate constants and half-life were obtained by fitting the data for each pig to two and three compartment models. […] These phases represent 69% and 31% respectively of the given dose such that approximately one-third of the dose was cleared slowly.

[3] = Pharmacokinetic studies 1, 4, 5, 7, 9: iv clearance of 125I-labelled TP10HD preparations in rats; assay type: in vivo, Sprague-Dawley rats
Experimental: In Studies 1, 2, 4, 5, 7 and 9, Iodination was carried out by the chloramine-T procedure. Sodium phosphate buffer, 0.5M, pH 7.6, 50 μl, was added to 1 mCi of Na-^125 I (New England Nuclear, Boston, Mass.) as supplied. The sample of TP10HD, typically 100 μg in 100 μl (Study 5=69 μg; Study 7=34 μg; Study 9=91 μg), was added followed by 50 μl of a 15 mg/ml solution of freshly prepared chloramine-T. The reaction mixture was vigorously shaken for 60 seconds. Sodium metabisulfite (50 μl, 15 mg/ml) and sodium iodide (100 μl, 10 mg/ml) were successively pipetted into the reaction vial. The reaction mixture was passed onto a PD10 column (Pharmacia Fine Chemicals, Piscataway, N.J.), pre-equilibrated with phosphate buffered saline, pH 7.2-7.4, containing 0.1% bovine serum albumin (Sigma Chemical Company, St. Louis, Mo.). Ten 0.5 ml fractions were collected and 2 μl aliquots were counted directly and after combining with 100 μl of a 0.1% bovine serum albumin solution and 1 ml of 20% trichloroacetic acid. After incubation at 0° C. for 1 hour, the acid-precipitable protein associated radioactivity was collected by centrifugation for 10 minutes at 1000×g and quantitated by scintillation counting. Fractions containing >90% of the total radioactivity in the acid precipitate were pooled for further use.
Study 1: Radioiodinated TP10HD-CX was mixed with purified unlabeled TP10HD-CX to yield a dosing solution suitable for administering a 1 mg/kg total TP10HD dose containing 16-25×10^6 cpm of radiolabeled TP10HD-CX.
Study 4: Radioiodinated TP10HD-CC was mixed with purified unlabeled TP10HD-CC to yield a dosing solution suitable for administering a 1 mg/kg or a 3 mg/kg total TP10HD dose containing ~20×10^6 cpm.
Study 5: Radioiodinated TP10HD-CCW was mixed with purified unlabeled TP10HD-CCW to yield a dosing solution suitable for administering a 1 mg/kg total TP10HD dose containing ~20×10^6 cpm.
Study 7: Radiolabeled TP10HD-CCS was mixed with purified unlabeled TP10HD-CCS to yield a dosing solution suitable for administering a 1 mg/kg total TP10HD dose containing ~20×10^6 cpm.
Study 9: Radioiodinated TP10HD-CXD was mixed with purified unlabeled TP10HD-CXD to yield a dosing solution suitable for administering a 1 mg/kg total TP10HD dose containing ~20~10^6 cpm.
In Studies 1, 4, 5, 7 and 9, test material was injected intravenously (iv) into four Sprague-Dawley rats (2 male, 2 female). Blood samples were obtained from the retroorbital plexus at 1, 3, 5, 10, 20, 30, 45, and 60 minutes post injection, and the radioactivity determined. Additional post infusion blood samples were taken at 2, 3, and 4 hours postinjection (STUDY 4) and at 120 minutes (STUDY 5). The plasma fraction of the remaining blood sample was retained for further analysis.
Plasma samples were analyzed for residual test material by measuring:
(1) total residual radioactivity;
(2) percentage of radiolabeled material precipitated with TCA;
(3) residual acid precipitable radioactivity in the presence of SDS; and
(4) material immunologically identifiable in an enzyme immunoassay as TP10HD.
Radioisotope data was quantitated as total cpm/ml blood or plasma and as the percentage of a theoretical time zero value. Pharmacokinetic half-life was calculated from the radiometric data.
In Study 9, removal of N-linked oligosaccharide chains was performed by n-glycanase digestion, performed according to manufacturer's instructions (Genzyme Corporation, Boston, Mass.). Typically, 58 μg TP10HD-CX was incubated with 10.5 units of n-glycanase for 18 hours, 37° C., in 0.2M sodium phosphate, pH 8.6 buffer.
Precipitation with trichloroacetic acid was performed as follows: Plasma (20 μl) was precipitated by sequential addition of 450μl of 0.13M Tris HCl, 4% SDS, 10% glycerol, pH 6.8 buffer, followed by 30 μl of fetal bovine serum and 500μl of 20% trichloroacetic acid. […]

[4] = Isoelectric point by chromatofocusing (Mono P, pH 7.1 to 4.0); assay type: physicochemical
Experimental: Chromatofocusing is a method of separating isoforms of proteins according to their isoelectric point, pI, using an ion exchange column and a pH gradient created with amphoteric buffers of different pH. In this study, analysis of the TP10HD preparations was performed using a pH gradient of 7.1 to 4.0. The chromatographic resin was Mono P, Hr5/5 (Pharmacia Fine Chemicals, Piscataway, N.J.); the starting buffer was 0.025M Bis/Tris titrated to pH 7.1 with saturated iminodiacetic acid; the eluant was polybuffer 7-4 (Pharmacia Fine Chemicals, Piscataway, N.J.) diluted 1:10 (v/v) with water and adjusted to pH 4.0 with HCl; cleaning buffer was 2M NaCl in water. The experimental conditions were chosen to yield a linear pH gradient of 7.1 to 4.0 units.

[5] = Pharmacokinetic studies 6 and 8: iv TP10HD-CCW and TP10HD-CCS in rabbits, radiometric and immunoassay; assay type: in vivo, Dutch rabbits; conditions: 1 mg/kg
Experimental: In Studies 6 and 8, iodination was performed by the iodogen method (Fraker et al., 1978, Biochem Biophys Res Commun 80:849); the average degree of ^125 I substitution was 0.56 atoms/molecule of protein resulting in a specific activity of 22.7 kBq/mg for STUDY 6, and the average degrees of ^125 I substitution was 0.76 atoms/molecule of protein resulting in a specific activity of 29.5 kBq/mg for STUDY 8.
Studies 6 and 8: As described in STUDY 2 except that the radioiodinated TP10HD-CCW was added to ~1% w/w.
In Studies 6 and 8, test material was injected iv into a group of 5 Dutch rabbits (approximately 1 kg) at a dose of 1 mg/kg. Blood samples, 1 ml, were taken from an ear artery immediately predosing and at 5, 10, 20, 30, 60, 120 and 180 minutes, mixed with heparin, and radioactivity determined in an aliquot by scintillation counting after precipitation with trichloroacetic acid.
Plasma samples were analyzed for residual test material by an enzyme immunoassay (EIA) specific for TP10HD. Pharmacokinetic half-life was calculated from both the radiometric and immunoassay data.
Precipitation with trichloroacetic acid was performed as follows: Plasma (20 μl) was precipitated by sequential addition of 450μl of 0.13M Tris HCl, 4% SDS, 10% glycerol, pH 6.8 buffer, followed by 30 μl of fetal bovine serum and 500μl of 20% trichloroacetic acid. After each addition, the tubes were vigorously mixed and incubated for […] at 4° C.; the pellets of precipitable protein were collected by centrifugation at 1000×g for 10 minutes, the supernatants removed and discarded, and the residual radioactivity measured by scintillation counting.
A commercially available assay was utilized (Cellfree® CD35, T Cell Diagnostics, Inc. Cambridge, Mass.). In brief, polystyrene beads coated with polyclonal rabbit anti-TP10HD antibodies were simultaneously incubated with the diluted test sample and a horse radish peroxidase-conjugated polyclonal rabbit anti-TP10HD antibody. Following incubation, the beads were removed from the reaction mixture, washed of nonspecifically bound material, and subsequently incubated in the presence of an appropriate dilution of substrate. Color development was terminated by the addition of sulfuric acid and the absorbance (optical density) determined as a measure of TP10HD concentration.

| Substance | IH50 (concentration giving 50% inhibition of hemolysis) [1] | antihemolytic potency comparison, in words [1] | α phase half-life ([3]; 1 mg/kg) | β phase half-life ([3]; 1 mg/kg) | % dose cleared, α-phase ([5]; immunoassay data) | % dose cleared, β-phase ([5]; immunoassay data) | Serum half-life, α-phase ([5]; immunoassay data) | Serum half-life, β-phase ([5]; immunoassay data) | Total Clearance ([5]; immunoassay data) | % dose cleared, β-phase ([5]; radiometric data) | Peak (t = O) concentration ([5]; radiometric data) | Serum half-life, β-phase ([5]; radiometric data) | Total Clearance ([5]; radiometric data) | Volume of Distribution, α-phase ([5]; radiometric data) | Volume of Distribution, β-phase ([5]; radiometric data) | other results |
| --- | --- | --- | --- | --- | --- | --- | --- | --- | --- | --- | --- | --- | --- | --- | --- | --- |
| TP10HD-CC: TP10HD produced by cells cultured in a fluidized bed perfusion bioreactor and purified by combination chromatography | about 50±3 ng/ml | no basis for concluding that TP10HD-CC, TP10HD-CCW and TP10HD-CCS differ in their potency | 0.153 h | 3.018 h | – | – | – | – | – | – | – | – | – | – | – | potency relative to the strongly cationic glycoform (fold lower) ([1]; from IH50 of TP10HD-CX and TP10HD-CC): approximately 2 fold; % of given dose represented by α-phase [2]: 69%; % of given dose represented by β-phase [2]: 31%; Peak (t = O) concentration [2]: 29.3 µg/mL; Total Clearance [2]: 0.24 mL/min/kg; Volume of Distribution, α-phase [2]: 0.036 L/kg; Volume of Distribution, β-phase [2]: 0.073 L/kg; plasma level 24 hours after dosing ([2]; 24 hours): not distinguishable from control levels; Serum half-life, α-phase ([2]; mean of 8 animals): 8.3 min; Serum half-life, β-phase ([2]; mean of 8 animals): 6 h and 6.05 h; mean half-life, β-phase ([2]; two-compartment model): 6 h; α phase half-life ([3]; 3 mg/kg): 0.163 h; β phase half-life ([3]; 3 mg/kg): 4.452 h; pI of dominant isoforms ([4]; chromatofocusing): 5.1 and 4.8; pI of minor isoforms ([4]; chromatofocusing, smaller quantities / minor component): 5.7; proportion of preparation with pI <4.9 ([4]; peak integration): approximately 40% |
| TP10HD-CCS: the strongly cationic form of TP10HD-CC isolated by preparative HPLC cation exchange chromatography | ~27 ng/mL | no basis for concluding that TP10HD-CC, TP10HD-CCW and TP10HD-CCS differ in their potency | 0.111 h | 2.22 h | 73% | 27% | 0.167 h | 1.27 h | 1.24 mL/min/kg | 25.5 ± 1.5% and ~25% | 14.6 ± 1.0 µg/mL | 3.6 h and 3.608 ± 0.613 h | 0.85 ± 0.12 mL/min/kg and 0.85 mL/min/kg | 0.0698 ± 0.0048 L/kg | 162.0 ± 13.9 ml/kg and ~ 162 ml/kg | – |
| TP10HD-CCW: the weakly cationic form of TP10HD-CC isolated by preparative HPLC cation exchange chromatography | 44 ng/mL | no basis for concluding that TP10HD-CC, TP10HD-CCW and TP10HD-CCS differ in their potency | 0.2035 h | 1.67 h | 30% | 70% | 0.233 h | 6.27 h | 0.1 mL/min/kg | 69.1 ± 1.9% and ~70% | 17.8 ± 0.3 µg/mL | 3.6 h and 3.61 ± 0.313 h | 0.26 ± 0.02 mL/min/kg and 0.26 mL/min/kg | 0.0562 ± 0.001 L/kg | 22.6 ± 1.9 ml/kg and ~ 23 ml/kg | – |
